Measurements taken from PMC5862501, “Lung macrophage scavenger receptor SR-A6 (MARCO) is an adenovirus type-specific virus entry receptor” (PLoS Pathogens, 2018).

Assays:
[1] = molecular target: mouse SR-A6 expressed in L-929 cells (mouse) (UniProt Q60754); assay: binding of fluorophore-labelled virions to cells, confocal microscopy; Alexa-Fluor488-labelled HAdV-C5 bound at 4°C to L-929 cells transfected with mouse SR-A6-IRES-Tomato; Tomato-positive against Tomato-negative cells
[2] = molecular target: the molecule itself; assay: non-reducing SDS-PAGE; purified soluble mSR-A6; monomers and trimers

Row | Molecule | fold, mean cell-associated virus number in Tomato-positive over Tomato-negative cells [1] [fold] | stoichiometry N [2]
1 | human adenovirus type C5 (HAdV-C5) virion (complex) | 7 | –
2 | soluble mouse SR-A6 (entire extracellular part) (domain or fragment, SR-A6 (MARCO), mouse, the entire extracellular part; Largely monomeric with a small amount of trimers (15-20%) in non-reducing SDS-PAGE; also called mSR-A6 soluble; soluble SR-A6) QVLNLQEQLQMLEMCCGNGSLAIEDKPFFSLQWAPKTHLVPRAQGLQALQAQLSWVHTSQEQLRQQFNNLTQNPELFQIKGERGSPGPKGAPGAPGIPGLPGPAAEKGEKGAAGRDGTPGVQGPQGPPGSKGEAGLQGLTGAPGKQGATGAPGPRGEKGSKGDIGLTGPKGEHGTKGDKGDLGLPGNKGDMGMKGDTGPMGSPGAQGGKGDAGKPGLPGLAGSPGVKGDQGKPGVQGVPGPQGAPGLSGAKGEPGRTGLPGPAGPPGIAGNPGIAGVKGSKGDTGIQGQKGTKGESGVPGLVGRKGDTGSPGLAGPKGEPGRVGQKGDPGMKGSSGQQGQKGEKGQKGESFQRVRIMGGTNRGRAEVYYNNEWGTICDDDWDNNDATVFCRMLGYSRGRALSSYGGGSGNIWLDNVNCRGTENSLWDCSKNSWGNHNCVHNEDAGVECS | – | 3
